Test results as given in patent US20090180995A1, “NOVEL ANTICOAGULANT POLYPEPTIDES AND COMPLEX” (National University of Singapore, priority 2005, published 2009).

Columns and labels:
FVIIa (human) [1] = target: FVIIa (human) (UniProt P08709)
FVIIa-sTF (human) [2] = target: FVIIa-sTF (human) (UniProt P08709); assay: cell-based or functional assay
FVIIa (human) [3] = target: FVIIa (human) (UniProt P08709); assay: cell-based or functional assay
FVIIa-sTF (human) [4] = target: FVIIa-sTF (human) (UniProt P08709); assay: non-competitive inhibition kinetics of FVIIa-sTF amidolytic activity on S-2288

FVIIa (human), sequence (P08709 61-212 limits assumed, chain 1 of 2): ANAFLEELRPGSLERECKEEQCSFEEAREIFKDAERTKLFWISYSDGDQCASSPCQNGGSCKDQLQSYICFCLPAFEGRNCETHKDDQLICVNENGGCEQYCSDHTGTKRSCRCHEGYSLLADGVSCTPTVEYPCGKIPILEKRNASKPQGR
FVIIa (human), sequence (P08709 213-466 limits assumed, chain 2 of 2): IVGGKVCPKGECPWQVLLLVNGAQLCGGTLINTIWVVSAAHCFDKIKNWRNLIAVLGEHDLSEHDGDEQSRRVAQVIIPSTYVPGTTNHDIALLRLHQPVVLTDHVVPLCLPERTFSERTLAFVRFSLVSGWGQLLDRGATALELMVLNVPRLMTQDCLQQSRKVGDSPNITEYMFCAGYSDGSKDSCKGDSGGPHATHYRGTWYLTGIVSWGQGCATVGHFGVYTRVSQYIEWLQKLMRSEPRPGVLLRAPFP
FVIIa-sTF (human), sequence (P08709 61-212 limits assumed, chain 1 of 3): as the sequence (P08709 61-212 limits assumed, chain 1 of 2) above
FVIIa-sTF (human), sequence (P13726 33-251 limits assumed, chain 2 of 3, further chain): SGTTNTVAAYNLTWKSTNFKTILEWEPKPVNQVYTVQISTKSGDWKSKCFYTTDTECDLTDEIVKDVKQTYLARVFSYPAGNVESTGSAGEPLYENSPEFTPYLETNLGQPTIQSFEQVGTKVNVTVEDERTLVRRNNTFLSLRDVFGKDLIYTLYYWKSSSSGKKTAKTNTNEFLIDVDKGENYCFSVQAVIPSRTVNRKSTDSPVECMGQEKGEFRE
FVIIa-sTF (human), sequence (P08709 213-466 limits assumed, chain 3 of 3): as the sequence (P08709 213-466 limits assumed, chain 2 of 2) above

B1: hemextin AB complex (protein)
chain 1: LKCKNKLVPFLSKTCPEGKNLCYKMTMLKMPKIPIKRGCTDACPKSSLLVKVVCCNKDKCN
chain 2: LKCKNKVVPFLKCKNKVVPFLCYKMTLKKVPKIPIKRGCTDACPKSSLLVNVMCCKTDKCN
B1 gave a Ka (FVIIa (human) [1]) of 411000 M⁻¹, a ΔG (FVIIa (human) [1]) of -7.54 and a ΔH (FVIIa (human) [1]) of -7.93. For the same binder, the ΔS (FVIIa (human) [1]) was -1.25 cal/M, the IC50, inhibition of FVIIa amidolytic activity in the presence of sTF (FVIIa-sTF (human) [2]) was 100 nM and the IC50, inhibition of FVIIa amidolytic activity in the absence of sTF (FVIIa (human) [3]) was 105 nM. The inhibitory potency towards FVIIa relative to plasma kallikrein (FVIIa (human) [3]) was > 50 times and the Ki (FVIIa-sTF (human) [4]) was 25 nM.
